US7329410

How the values were obtained:
[1] = target: Mouse MHC Class I (mouse B6 class I antigens; D^b or K^b molecules on the surface of RMA-S cells) (mouse); experiment: RMA-S cells incubated with peptide 25 ug/ml, stained with FITC anti-D^b or anti-K^b, flow cytometry; increase in MFI over medium alone
[2] = target: Mouse MHC Class I (mouse B6 class I antigens; D^b or K^b molecules on the surface of RMA-S cells) (mouse); experiment: binding of 9mer peptide to mouse B6 (H-2^b) class I antigens; RMA-S cell assay as for Table XLVII

| Binder | Binding Affinity to Mouse MHC Class I (percent increase of D^b or K^b on RMA-S cells) [1] | Binding Affinity to Mouse MHC Class I [2] |
| --- | --- | --- |
| SSGQARMFP [WT1 peptide P121-129 …] | – | 1% |
| QARMFPNAP [WT1 peptide P124-132 …] | – | 1% |
| ARMFPNAPY [WT1 peptide P125-133 …] | – | 1% |
| SQASSGQAR [WT1 peptide P118-126 …] | – | 2% |
| ASSGQARMF [WT1 peptide P120-128 …] | – | 1% |
| NAPYLPSCL [WT1 peptide P130-138 …] | – | 79% |
| NQMNLGATL [WT1 peptide p239-247 …] | 1% | – |
| PNAPYLPSC [WT1 peptide P129-137 …] | – | 1% |

Other lines, results leading:

| Binding Affinity to Mouse MHC Class I (percent increase of D^b or K^b on RMA-S cells) [1] | Binding Affinity to Mouse MHC Class I [2] | Binder |
| --- | --- | --- |
| 0.8% | – | YSSDNLYQM [WT1 peptide p221-229 …] |
| – | 2% | QASSGQARM [WT1 peptide P119-127 …] |
| – | 2% | PSQASSGQA [WT1 peptide P117-125 …] |
| 2.2% | – | ALLPAVPSL [WT1 peptide human p10-18 …] |
| – | 2% | MFPNAPYLP [WT1 peptide P127-135 …] |
| 33.6% | – | CMTWNQMNL [WT1 peptide p235-243 …] |
| 5.8% | – | NLYQMTSQL [WT1 peptide p225-233 …] |
| – | 1% | APYLPSCLE [WT1 peptide P131-139 …] |
| – | 1% | FPNAPYLPS [WT1 peptide P128-136 …] |
| 1.2% | – | GCNKRYFKL [WT1 peptide p329-337 …] |
| 1.2% | – | QMTSQLECM [WT1 peptide p228-236 …] |
| 52% | – | SCLESQPAI [WT1 peptide human p136-144 …] |
